Data taken from the supplement of paper PMC7125110.
± gives the standard error. For part of these data: This sample holds only a part of the variants without activity.

B1: glmS ribozyme (parent)
chain: AUAAAAGCGCCAGAACUACAGAAAUGUAGUUGACGAGGAGGAGGUUUAUCGAAUUUUCGGCGGAUGCCUCCAAA

Columns and labels:
Settings in all cases: with glucosamine-6-phosphate
[1] = variants of: B1; assay: kcat; higher = faster cleavage; RNA array
Procedure, shortened: (§1)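 Tiles of sequenced MiSeq chips were imaged over ~14 h at 37 °C. On them, barcoded ribozyme variants had been transcribed in situ by E. coli RNA polymerase and were tracked via a hybridised Cy3 probe while glucosamine-6-phosphate (40 μM to 10 mM) in HEPES/KCl/Mg(OAc)2 buffer flowed in. Per-tile medians, normalised to baseline and to non-cleaving reference variants, were fit to one- or two-exponential decays for kobs, and weighted Michaelis–Menten fits gave kcat and KM.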

[2] = variants of: B1; assay: KM; higher = weaker cofactor use; RNA array
Procedure, shortened: as §1

[3] = variants of: B1; assay: self-cleavage kobs at 160 uM GlcN6P; higher = faster cleavage; RNA array
Procedure, shortened: as §1

[4] = variants of: B1; assay: self-cleavage kobs at 640 uM GlcN6P; higher = faster cleavage; RNA array
Procedure, shortened: as §1

[5] = variants of: B1; assay: self-cleavage kobs at 2500 uM GlcN6P; higher = faster cleavage; RNA array
Procedure, shortened: as §1

[6] = variants of: B1; assay: self-cleavage kobs at 10000 uM GlcN6P; higher = faster cleavage; RNA array
Procedure, shortened: as §1

[7] = variants of: B1; assay: self-cleavage kobs at 40 uM GlcN6P; higher = faster cleavage; RNA array
Procedure, shortened: as §1

Row | Variant | kcat [1] [s⁻¹] | KM [2] [µM] | self-cleavage kobs at 160 uM GlcN6P [3] [s⁻¹] | self-cleavage kobs at 640 uM GlcN6P [4] [s⁻¹] | self-cleavage kobs at 2500 uM GlcN6P [5] [s⁻¹] | self-cleavage kobs at 10000 uM GlcN6P [6] [s⁻¹] | self-cleavage kobs at 40 uM GlcN6P [7] [s⁻¹]
1 | U30A U65G | 0.00214 ± 0.00022 | 5250 ± 1000 | 6.8e-05 ± 2.4e-05 | 0.000275 ± 8.9e-05 | 0.000614 ± 0.00016 | 0.00141 ± 0.00016 | 
2 | U49A C71U | 1.56e-05 ± 3.2e-06 |  |  | < 1e-05 |  |  | 
3 | A53U G60A | < 1e-05 |  |  |  |  |  | < 1e-05
4 | A12G G13C | 2.64e-05 ± 6.5e-07 | 2100 ± 230 | < 1e-05 |  |  |  | < 1e-05
5 | U56C | 0.00571 ± 0.00066 | 3050 ± 430 | 0.000244 ± 8.9e-06 | 0.000963 ± 2.5e-05 | 0.00743 ± 0.0032 | 0.00442 ± 0.00011 | 7.94e-05 ± 1.5e-06
6 | G40U A52U | 0.000102 ± 6.2e-06 | 2510 ± 550 |  |  | 4.82e-05 ± 9.8e-06 | 8.17e-05 ± 6.8e-06 | 
7 | A52U U54C | 0.000603 ± 4.5e-05 | 2570 ± 310 | 3.57e-05 ± 9.5e-06 | 0.000115 ± 1.9e-05 | 0.000318 ± 5e-05 | 0.000462 ± 8.6e-05 | 
8 | A15U G32A | 0.00116 ± 0.00015 | 4440 ± 850 |  | 0.000153 ± 2.9e-05 | 0.000388 ± 9.4e-05 | 0.00082 ± 0.00016 | 
9 | G37C G66A | 3.43e-05 ± 7.8e-06 |  |  |  | 3.43e-05 ± 1.5e-05 |  | < 1e-05
10 | U65A G66C | 0.000476 ± 5.1e-05 | 1400 ± 320 |  | 0.000156 ± 3.2e-05 | 0.000267 ± 8.2e-05 | 0.000436 ± 8.9e-05 | 
11 | A42U A53G | 0.000266 ± 4.7e-05 | 2160 ± 870 |  | 4.83e-05 ± 1.2e-05 | 0.000175 ± 2.1e-05 | 0.000206 ± 2.4e-05 | 
12 | U31C G38U | < 1e-05 |  |  |  |  | < 1e-05 | < 1e-05
13 | G32A U54C | 0.00356 ± 0.0013 |  |  | 0.000309 ± 6.5e-05 | 0.00147 ± 0.00026 | 0.0022 ± 0.00036 | 3.45e-05 ± 1.1e-05
14 | G38U C70U | 1.27e-05 ± 2.6e-06 |  |  |  |  |  | 
15 | C10A C50U | < 1e-05 |  |  |  |  | < 1e-05 | 
16 | A15C C70G C71A | 4.1e-05 ± 1.4e-05 |  | 4.75e-05 ± 2e-05 | 6.35e-05 ± 1.7e-05 |  |  | 
17 | U49A U55A | 3.61e-05 ± 1.5e-06 | 5970 ± 610 |  |  |  | 2.26e-05 ± 9.3e-06 | 
18 | G40C U47G | 0.000514 ± 9.8e-05 | 1190 ± 440 | 7.96e-05 ± 1.8e-05 | 0.000157 ± 2.4e-05 | 0.00041 ± 5.3e-05 | 0.000412 ± 7.9e-05 | 
